US20260049138A1 (Chugai, published 2026)

Target: T1, CD3ε homodimer protein (human, UniProt P07766 23-126, limits assumed, sulfo-tag or biotin label in the ECL assays; amine-coupled to the chip in SPR)
T1 construct: also called human CD3ε homodimer protein; CD3 (CD3ε)
Experiment: SPR Biacore T200; CD3ε homodimer on CM4 chip;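 further: Single-residue variant antibodies injected as analyte over CD3ε homodimer immobilized by amine coupling, run at 25 °C in HBS-EP+ buffer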

T1 sequence (P07766 23-126 limits assumed): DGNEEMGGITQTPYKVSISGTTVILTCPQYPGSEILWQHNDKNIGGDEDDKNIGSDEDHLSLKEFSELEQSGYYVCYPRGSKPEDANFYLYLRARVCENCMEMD

| ratio of amounts bound Z=Y/X (altered form / CE115HA000) | Binder |
| --- | --- |
| 1.07 | CE115HA000 Y100K one-arm antibody (antibody, human IgG1, kappa, L234A L235A, N297A, name in Kabat numbering) heavy: QVQLVESGGGVVQPGRSLRLSCAASGFTFSNAWMHWVRQAPGKGLEWVAQIKAKSNNYATYYAESVKGRFTISRDDSKNSLYLQMNSLKTEDTAVYYCRYVHYGAKYGVDAWGQGTTVTVSSASTKGPSVFPLAPSSKSTSGGTAALGCLVKDYFPEPVTVSWNSGALTSGVHTFPAVLQSSGLYSLSSVVTVPSSSLGTQTYICNVNHKPSNTKVDKKVEPKSCDKTHTCPPCPAPEAAGGPSVFLFPPKPKDTLMISRTPEVTCVVVDVSHEDPEVKFNWYVDGVEVHNAKTKPREEQYASTYRVVSVLTVLHQDWLNGKEYKCKVSNKALPAPIEKTISKAKGQPREPQVYTLPPSRCELTKNQVSLSCAVKGFYPSDIAVEWESNGQPENNYKTTPPVLDSDGSFFLVSKLTVDKSRWQQGNVFSCSVMHEALHNHYTQKSLSLSPDYKDDDDK EPKSSDKTHTCPPCPAPELLGGPSVFLFPPKPKDTLMISRTPEVTCVVVDVSHEDPEVKFNWYVDGVEVHNAKTKPREEQYNSTYRVVSVLTVLHQDWLNGKEYKCKVSNKALPAPIEKTISKAKGQPREPQVCTLPPSRDELTKNQVSLWCLVKGFYPSDIAVEWESNGQPENNYKTTPPVLDSDGSFFLYSKLTVDKSRWQQGNVFSCSVMHEALHNRYTQKSLSLSP light: DIVMTQSPLSLPVTPGEPASISCRSSQSLVHSNRNTYLHWYQQKPGQAPRLLIYKVSNRFSGVPDRFSGSGSGTDFTLKISRVEAEDVGVYYCGQGTQVPYTFGQGTKLEIKRTVAAPSVFIFPPSDEQLKSGTASVVCLLNNFYPREAKVQWKVDNALQSGNSQESVTEQDSKDSTYSLSSTLTLSKADYEKHKVYACEVTHQGLSSPVTKSFNRGEC |
| 0.81 | CE115HA000 Y100S one-arm antibody (antibody, human IgG1, kappa, L234A L235A, N297A, name in Kabat numbering) heavy: QVQLVESGGGVVQPGRSLRLSCAASGFTFSNAWMHWVRQAPGKGLEWVAQIKAKSNNYATYYAESVKGRFTISRDDSKNSLYLQMNSLKTEDTAVYYCRYVHYGASYGVDAWGQGTTVTVSSASTKGPSVFPLAPSSKSTSGGTAALGCLVKDYFPEPVTVSWNSGALTSGVHTFPAVLQSSGLYSLSSVVTVPSSSLGTQTYICNVNHKPSNTKVDKKVEPKSCDKTHTCPPCPAPEAAGGPSVFLFPPKPKDTLMISRTPEVTCVVVDVSHEDPEVKFNWYVDGVEVHNAKTKPREEQYASTYRVVSVLTVLHQDWLNGKEYKCKVSNKALPAPIEKTISKAKGQPREPQVYTLPPSRCELTKNQVSLSCAVKGFYPSDIAVEWESNGQPENNYKTTPPVLDSDGSFFLVSKLTVDKSRWQQGNVFSCSVMHEALHNHYTQKSLSLSPDYKDDDDK EPKSSDKTHTCPPCPAPELLGGPSVFLFPPKPKDTLMISRTPEVTCVVVDVSHEDPEVKFNWYVDGVEVHNAKTKPREEQYNSTYRVVSVLTVLHQDWLNGKEYKCKVSNKALPAPIEKTISKAKGQPREPQVCTLPPSRDELTKNQVSLWCLVKGFYPSDIAVEWESNGQPENNYKTTPPVLDSDGSFFLYSKLTVDKSRWQQGNVFSCSVMHEALHNRYTQKSLSLSP light: DIVMTQSPLSLPVTPGEPASISCRSSQSLVHSNRNTYLHWYQQKPGQAPRLLIYKVSNRFSGVPDRFSGSGSGTDFTLKISRVEAEDVGVYYCGQGTQVPYTFGQGTKLEIKRTVAAPSVFIFPPSDEQLKSGTASVVCLLNNFYPREAKVQWKVDNALQSGNSQESVTEQDSKDSTYSLSSTLTLSKADYEKHKVYACEVTHQGLSSPVTKSFNRGEC |
| 0.48 | CE115HA000 Y100P one-arm antibody (antibody, human IgG1, kappa, L234A L235A, N297A, name in Kabat numbering) heavy: QVQLVESGGGVVQPGRSLRLSCAASGFTFSNAWMHWVRQAPGKGLEWVAQIKAKSNNYATYYAESVKGRFTISRDDSKNSLYLQMNSLKTEDTAVYYCRYVHYGAPYGVDAWGQGTTVTVSSASTKGPSVFPLAPSSKSTSGGTAALGCLVKDYFPEPVTVSWNSGALTSGVHTFPAVLQSSGLYSLSSVVTVPSSSLGTQTYICNVNHKPSNTKVDKKVEPKSCDKTHTCPPCPAPEAAGGPSVFLFPPKPKDTLMISRTPEVTCVVVDVSHEDPEVKFNWYVDGVEVHNAKTKPREEQYASTYRVVSVLTVLHQDWLNGKEYKCKVSNKALPAPIEKTISKAKGQPREPQVYTLPPSRCELTKNQVSLSCAVKGFYPSDIAVEWESNGQPENNYKTTPPVLDSDGSFFLVSKLTVDKSRWQQGNVFSCSVMHEALHNHYTQKSLSLSPDYKDDDDK EPKSSDKTHTCPPCPAPELLGGPSVFLFPPKPKDTLMISRTPEVTCVVVDVSHEDPEVKFNWYVDGVEVHNAKTKPREEQYNSTYRVVSVLTVLHQDWLNGKEYKCKVSNKALPAPIEKTISKAKGQPREPQVCTLPPSRDELTKNQVSLWCLVKGFYPSDIAVEWESNGQPENNYKTTPPVLDSDGSFFLYSKLTVDKSRWQQGNVFSCSVMHEALHNRYTQKSLSLSP light: DIVMTQSPLSLPVTPGEPASISCRSSQSLVHSNRNTYLHWYQQKPGQAPRLLIYKVSNRFSGVPDRFSGSGSGTDFTLKISRVEAEDVGVYYCGQGTQVPYTFGQGTKLEIKRTVAAPSVFIFPPSDEQLKSGTASVVCLLNNFYPREAKVQWKVDNALQSGNSQESVTEQDSKDSTYSLSSTLTLSKADYEKHKVYACEVTHQGLSSPVTKSFNRGEC |
| 0.7 | CE115HA000 Y100L one-arm antibody (antibody, human IgG1, kappa, L234A L235A, N297A, name in Kabat numbering) heavy: QVQLVESGGGVVQPGRSLRLSCAASGFTFSNAWMHWVRQAPGKGLEWVAQIKAKSNNYATYYAESVKGRFTISRDDSKNSLYLQMNSLKTEDTAVYYCRYVHYGALYGVDAWGQGTTVTVSSASTKGPSVFPLAPSSKSTSGGTAALGCLVKDYFPEPVTVSWNSGALTSGVHTFPAVLQSSGLYSLSSVVTVPSSSLGTQTYICNVNHKPSNTKVDKKVEPKSCDKTHTCPPCPAPEAAGGPSVFLFPPKPKDTLMISRTPEVTCVVVDVSHEDPEVKFNWYVDGVEVHNAKTKPREEQYASTYRVVSVLTVLHQDWLNGKEYKCKVSNKALPAPIEKTISKAKGQPREPQVYTLPPSRCELTKNQVSLSCAVKGFYPSDIAVEWESNGQPENNYKTTPPVLDSDGSFFLVSKLTVDKSRWQQGNVFSCSVMHEALHNHYTQKSLSLSPDYKDDDDK EPKSSDKTHTCPPCPAPELLGGPSVFLFPPKPKDTLMISRTPEVTCVVVDVSHEDPEVKFNWYVDGVEVHNAKTKPREEQYNSTYRVVSVLTVLHQDWLNGKEYKCKVSNKALPAPIEKTISKAKGQPREPQVCTLPPSRDELTKNQVSLWCLVKGFYPSDIAVEWESNGQPENNYKTTPPVLDSDGSFFLYSKLTVDKSRWQQGNVFSCSVMHEALHNRYTQKSLSLSP light: DIVMTQSPLSLPVTPGEPASISCRSSQSLVHSNRNTYLHWYQQKPGQAPRLLIYKVSNRFSGVPDRFSGSGSGTDFTLKISRVEAEDVGVYYCGQGTQVPYTFGQGTKLEIKRTVAAPSVFIFPPSDEQLKSGTASVVCLLNNFYPREAKVQWKVDNALQSGNSQESVTEQDSKDSTYSLSSTLTLSKADYEKHKVYACEVTHQGLSSPVTKSFNRGEC |
| 0.6 | CE115HA000 Y100V one-arm antibody (antibody, human IgG1, kappa, L234A L235A, N297A, name in Kabat numbering) heavy: QVQLVESGGGVVQPGRSLRLSCAASGFTFSNAWMHWVRQAPGKGLEWVAQIKAKSNNYATYYAESVKGRFTISRDDSKNSLYLQMNSLKTEDTAVYYCRYVHYGAVYGVDAWGQGTTVTVSSASTKGPSVFPLAPSSKSTSGGTAALGCLVKDYFPEPVTVSWNSGALTSGVHTFPAVLQSSGLYSLSSVVTVPSSSLGTQTYICNVNHKPSNTKVDKKVEPKSCDKTHTCPPCPAPEAAGGPSVFLFPPKPKDTLMISRTPEVTCVVVDVSHEDPEVKFNWYVDGVEVHNAKTKPREEQYASTYRVVSVLTVLHQDWLNGKEYKCKVSNKALPAPIEKTISKAKGQPREPQVYTLPPSRCELTKNQVSLSCAVKGFYPSDIAVEWESNGQPENNYKTTPPVLDSDGSFFLVSKLTVDKSRWQQGNVFSCSVMHEALHNHYTQKSLSLSPDYKDDDDK EPKSSDKTHTCPPCPAPELLGGPSVFLFPPKPKDTLMISRTPEVTCVVVDVSHEDPEVKFNWYVDGVEVHNAKTKPREEQYNSTYRVVSVLTVLHQDWLNGKEYKCKVSNKALPAPIEKTISKAKGQPREPQVCTLPPSRDELTKNQVSLWCLVKGFYPSDIAVEWESNGQPENNYKTTPPVLDSDGSFFLYSKLTVDKSRWQQGNVFSCSVMHEALHNRYTQKSLSLSP light: DIVMTQSPLSLPVTPGEPASISCRSSQSLVHSNRNTYLHWYQQKPGQAPRLLIYKVSNRFSGVPDRFSGSGSGTDFTLKISRVEAEDVGVYYCGQGTQVPYTFGQGTKLEIKRTVAAPSVFIFPPSDEQLKSGTASVVCLLNNFYPREAKVQWKVDNALQSGNSQESVTEQDSKDSTYSLSSTLTLSKADYEKHKVYACEVTHQGLSSPVTKSFNRGEC |
| 0.8 | CE115HA000 Y100Q one-arm antibody (antibody, human IgG1, kappa, L234A L235A, N297A, name in Kabat numbering) heavy: QVQLVESGGGVVQPGRSLRLSCAASGFTFSNAWMHWVRQAPGKGLEWVAQIKAKSNNYATYYAESVKGRFTISRDDSKNSLYLQMNSLKTEDTAVYYCRYVHYGAQYGVDAWGQGTTVTVSSASTKGPSVFPLAPSSKSTSGGTAALGCLVKDYFPEPVTVSWNSGALTSGVHTFPAVLQSSGLYSLSSVVTVPSSSLGTQTYICNVNHKPSNTKVDKKVEPKSCDKTHTCPPCPAPEAAGGPSVFLFPPKPKDTLMISRTPEVTCVVVDVSHEDPEVKFNWYVDGVEVHNAKTKPREEQYASTYRVVSVLTVLHQDWLNGKEYKCKVSNKALPAPIEKTISKAKGQPREPQVYTLPPSRCELTKNQVSLSCAVKGFYPSDIAVEWESNGQPENNYKTTPPVLDSDGSFFLVSKLTVDKSRWQQGNVFSCSVMHEALHNHYTQKSLSLSPDYKDDDDK EPKSSDKTHTCPPCPAPELLGGPSVFLFPPKPKDTLMISRTPEVTCVVVDVSHEDPEVKFNWYVDGVEVHNAKTKPREEQYNSTYRVVSVLTVLHQDWLNGKEYKCKVSNKALPAPIEKTISKAKGQPREPQVCTLPPSRDELTKNQVSLWCLVKGFYPSDIAVEWESNGQPENNYKTTPPVLDSDGSFFLYSKLTVDKSRWQQGNVFSCSVMHEALHNRYTQKSLSLSP light: DIVMTQSPLSLPVTPGEPASISCRSSQSLVHSNRNTYLHWYQQKPGQAPRLLIYKVSNRFSGVPDRFSGSGSGTDFTLKISRVEAEDVGVYYCGQGTQVPYTFGQGTKLEIKRTVAAPSVFIFPPSDEQLKSGTASVVCLLNNFYPREAKVQWKVDNALQSGNSQESVTEQDSKDSTYSLSSTLTLSKADYEKHKVYACEVTHQGLSSPVTKSFNRGEC |
